Measurements from patent US20230235013A1 (MABSOLVE, published 2023).

What was measured:
[1] = biological target: T1, C-terminus biotinylated human FcRn attached to Streptavidin-SmBiT (FcRn-SAv-SmBiT) (human, UniProt P55899 24-297; P61769 21-119, limits assumed, C-terminus biotinylated (AviTag), attached to Streptavidin-SmBiT); assay: NanoBiT FcRn competition immunoassay, competitor Tracer-LgBiT human IgG, pH 6.0
T1 construct: Kit reagent; also called hFcRn-AviTag

[2] = biological target: T2, Human C1q (Sigma Cat. No. 20476), HRP-labelled (human, UniProt P02745 23-245; P02746 28-253; P02747 29-245); assay: ELISA, antibody coated, HRP-C1q; Expt 2, buffer alone 0.051
T2 construct: Coupled to horse-radish peroxidase with Lightning-Link kit; also called HRP-labelled C1q

[3] = biological target: T2, Human C1q (Sigma Cat. No. 20476), …; assay: ELISA, antibody coated, HRP-C1q; Expt 1, buffer alone 0.053
[4] = biological target: T2, Human C1q (Sigma Cat. No. 20476), …; assay: ELISA, antibody coated, HRP-C1q; Expt 1, buffer alone 0.061
[5] = biological target: T2, Human C1q (Sigma Cat. No. 20476), …; assay: ELISA, antibody coated, HRP-C1q; Expt 2, buffer alone 0.091
[6] = biological target: T3, human FcRn (R&D Systems Cat. No. 8639-Fc) (human, UniProt P55899 24-297; P61769 21-119); assay: SPR, FcRn captured; Expt 1
[7] = biological target: T3, human FcRn (R&D Systems Cat. No. …); assay: SPR, FcRn captured; Expt 3
[8] = biological target: T3, human FcRn (R&D Systems Cat. No. …); assay: SPR, FcRn captured; Expt 2
[9] = biological target: T3, human FcRn (R&D Systems Cat. No. …); assay: SPR, FcRn captured; Mean

Row | Binder | Mean binding activity (% of wild-type reference) [1] | Mean Absorbance [2] | Mean Absorbance [3] | Mean Absorbance [4] | Mean Absorbance [5] | Corrected and normalised response (% of wild-type reference) [6] | Corrected and normalised response (% of wild-type reference) [7] | Corrected and normalised response (% of wild-type reference) [8] | Corrected and normalised response (% of wild-type reference) [9]
1 | anti-CD20 (rituximab) human IgG1 L234Q/L235S/G236R/M252Y/S254T/T256E (antibody, EU numbering; also called 10.145; copies: 2 + 2) heavy: QVQLQQPGAELVKPGASVKMSCKASGYTFTSYNMHWVKQTPGRGLEWIGAIYPGNGDTSYNQKFKGKATLTADKSSSTAYMQLSSLTSEDSAVYYCARSTYYGGDWYFNVWGAGTTVTVSSASTKGPSVFPLAPSSKSTSGGTAALGCLVKDYFPEPVTVSWNSGALTSGVHTFPAVLQSSGLYSLSSVVTVPSSSLGTQTYICNVNHKPSNTKVDKKVEPKSCDKTHTCPPCPAPEQSRGPSVFLFPPKPKDTLYITREPEVTCVVVDVSHEDPEVKFNWYVDGVEVHNAKTKPREEQYNSTYRVVSVLTVLHQDWLNGKEYKCKVSNKALPAPIEKTISKAKGQPREPQVYTLPPSRDELTKNQVSLTCLVKGFYPSDIAVEWESNGQPENNYKTTPPVLDSDGSFFLYSKLTVDKSRWQQGNVFSCSVMHEALHNHYTQKSLSLSPGK light: QIVLSQSPAILSASPGEKVTMTCRASSSVSYIHWFQQKPGSSPKPWIYATSNLASGVPVRFSGSGSGTSYSLTISRVEAEDAATYYCQQWTSNPPTFGGGTKLEIKRTVAAPSVFIFPPSDEQLKSGTASVVCLLNNFYPREAKVQWKVDNALQSGNSQESVTEQDSKDSTYSLSSTLTLSKADYEKHKVYACEVTHQGLSSPVTKSFNRGEC | 3940 % of wild-type reference | 0.056 absorbance (450 nm) | 0.052 absorbance (450 nm) | – | – | – | – | – | –
2 | anti-CD20 (rituximab) human IgG1 L234Q/L235S/G236R/T250Q/M428L (antibody, EU numbering; also called 10.146; copies: 2 + 2) heavy: QVQLQQPGAELVKPGASVKMSCKASGYTFTSYNMHWVKQTPGRGLEWIGAIYPGNGDTSYNQKFKGKATLTADKSSSTAYMQLSSLTSEDSAVYYCARSTYYGGDWYFNVWGAGTTVTVSSASTKGPSVFPLAPSSKSTSGGTAALGCLVKDYFPEPVTVSWNSGALTSGVHTFPAVLQSSGLYSLSSVVTVPSSSLGTQTYICNVNHKPSNTKVDKKVEPKSCDKTHTCPPCPAPEQSRGPSVFLFPPKPKDQLMISRTPEVTCVVVDVSHEDPEVKFNWYVDGVEVHNAKTKPREEQYNSTYRVVSVLTVLHQDWLNGKEYKCKVSNKALPAPIEKTISKAKGQPREPQVYTLPPSRDELTKNQVSLTCLVKGFYPSDIAVEWESNGQPENNYKTTPPVLDSDGSFFLYSKLTVDKSRWQQGNVFSCSVLHEALHNHYTQKSLSLSPGK light: QIVLSQSPAILSASPGEKVTMTCRASSSVSYIHWFQQKPGSSPKPWIYATSNLASGVPVRFSGSGSGTSYSLTISRVEAEDAATYYCQQWTSNPPTFGGGTKLEIKRTVAAPSVFIFPPSDEQLKSGTASVVCLLNNFYPREAKVQWKVDNALQSGNSQESVTEQDSKDSTYSLSSTLTLSKADYEKHKVYACEVTHQGLSSPVTKSFNRGEC | 650 % of wild-type reference | 0.062 absorbance (450 nm) | 0.051 absorbance (450 nm) | – | – | – | – | – | –
3 | anti-CD20 (rituximab) human IgG1 L234S/L235V/G236R (antibody, EU numbering; also called 2-53; copies: 2 + 2) heavy: QVQLQQPGAELVKPGASVKMSCKASGYTFTSYNMHWVKQTPGRGLEWIGAIYPGNGDTSYNQKFKGKATLTADKSSSTAYMQLSSLTSEDSAVYYCARSTYYGGDWYFNVWGAGTTVTVSSASTKGPSVFPLAPSSKSTSGGTAALGCLVKDYFPEPVTVSWNSGALTSGVHTFPAVLQSSGLYSLSSVVTVPSSSLGTQTYICNVNHKPSNTKVDKKVEPKSCDKTHTCPPCPAPESVRGPSVFLFPPKPKDTLMISRTPEVTCVVVDVSHEDPEVKFNWYVDGVEVHNAKTKPREEQYNSTYRVVSVLTVLHQDWLNGKEYKCKVSNKALPAPIEKTISKAKGQPREPQVYTLPPSRDELTKNQVSLTCLVKGFYPSDIAVEWESNGQPENNYKTTPPVLDSDGSFFLYSKLTVDKSRWQQGNVFSCSVMHEALHNHYTQKSLSLSPGK light: QIVLSQSPAILSASPGEKVTMTCRASSSVSYIHWFQQKPGSSPKPWIYATSNLASGVPVRFSGSGSGTSYSLTISRVEAEDAATYYCQQWTSNPPTFGGGTKLEIKRTVAAPSVFIFPPSDEQLKSGTASVVCLLNNFYPREAKVQWKVDNALQSGNSQESVTEQDSKDSTYSLSSTLTLSKADYEKHKVYACEVTHQGLSSPVTKSFNRGEC | 94.1 % of wild-type reference | – | – | 0.072 absorbance (450 nm) | 0.09 absorbance (450 nm) | – | – | – | –
4 | anti-CD20 (rituximab) human IgG1 L234T/L235Q/G236R (antibody, EU numbering; also called 2-60; copies: 2 + 2) heavy: QVQLQQPGAELVKPGASVKMSCKASGYTFTSYNMHWVKQTPGRGLEWIGAIYPGNGDTSYNQKFKGKATLTADKSSSTAYMQLSSLTSEDSAVYYCARSTYYGGDWYFNVWGAGTTVTVSSASTKGPSVFPLAPSSKSTSGGTAALGCLVKDYFPEPVTVSWNSGALTSGVHTFPAVLQSSGLYSLSSVVTVPSSSLGTQTYICNVNHKPSNTKVDKKVEPKSCDKTHTCPPCPAPETQRGPSVFLFPPKPKDTLMISRTPEVTCVVVDVSHEDPEVKFNWYVDGVEVHNAKTKPREEQYNSTYRVVSVLTVLHQDWLNGKEYKCKVSNKALPAPIEKTISKAKGQPREPQVYTLPPSRDELTKNQVSLTCLVKGFYPSDIAVEWESNGQPENNYKTTPPVLDSDGSFFLYSKLTVDKSRWQQGNVFSCSVMHEALHNHYTQKSLSLSPGK light: QIVLSQSPAILSASPGEKVTMTCRASSSVSYIHWFQQKPGSSPKPWIYATSNLASGVPVRFSGSGSGTSYSLTISRVEAEDAATYYCQQWTSNPPTFGGGTKLEIKRTVAAPSVFIFPPSDEQLKSGTASVVCLLNNFYPREAKVQWKVDNALQSGNSQESVTEQDSKDSTYSLSSTLTLSKADYEKHKVYACEVTHQGLSSPVTKSFNRGEC | 84.7 % of wild-type reference | – | – | 0.049 absorbance (450 nm) | 0.077 absorbance (450 nm) | 94.6 % of wild-type reference | 94.3 % of wild-type reference | 96.1 % of wild-type reference | 95 % of wild-type reference
5 | anti-CD20 (rituximab variable regions) human IgG4 L234Q/L235S/G236R (with S228P) (antibody, copies: 2 + 2) heavy: QVQLQQPGAELVKPGASVKMSCKASGYTFTSYNMHWVKQTPGRGLEWIGAIYPGNGDTSYNQKFKGKATLTADKSSSTAYMQLSSLTSEDSAVYYCARSTYYGGDWYFNVWGAGTTVTVSSASTKGPSVFPLAPCSRSTSESTAALGCLVKDYFPEPVTVSWNSGALTSGVHTFPAVLQSSGLYSLSSVVTVPSSSLGTKTYTCNVDHKPSNTKVDKRVESKYGPPCPPCPAPEQSRGPSVFLFPPKPKDTLMISRTPEVTCVVVDVSQEDPEVQFNWYVDGVEVHNAKTKPREEQFNSTYRVVSVLTVLHQDWLNGKEYKCKVSNKGLPSSIEKTISKAKGQPREPQVYTLPPSQEEMTKNQVSLTCLVKGFYPSDIAVEWESNGQPENNYKTTPPVLDSDGSFFLYSRLTVDKSRWQEGNVFSCSVMHEALHNHYTQKSLSLSLGK light: QIVLSQSPAILSASPGEKVTMTCRASSSVSYIHWFQQKPGSSPKPWIYATSNLASGVPVRFSGSGSGTSYSLTISRVEAEDAATYYCQQWTSNPPTFGGGTKLEIKRTVAAPSVFIFPPSDEQLKSGTASVVCLLNNFYPREAKVQWKVDNALQSGNSQESVTEQDSKDSTYSLSSTLTLSKADYEKHKVYACEVTHQGLSSPVTKSFNRGEC | 114 % of wild-type reference | 0.052 absorbance (450 nm) | 0.051 absorbance (450 nm) | – | – | – | – | – | –
6 | anti-CD20 (rituximab variable regions) rabbit IgG L234Q/L235S/G236R (antibody, also called 23.77) heavy: QVQLQQPGAELVKPGASVKMSCKASGYTFTSYNMHWVKQTPGRGLEWIGAIYPGNGDTSYNQKFKGKATLTADKSSSTAYMQLSSLTSEDSAVYYCARSTYYGGDWYFNVWGAGTTVTVSSGQPKAPSVFPLAPCCGDTPSSTVTLGCLVKGYLPEPVTVTWNSGTLTNGVRTFPSVRQSSGLYSLSSVVSVTSSSQPVTCNVAHPATNTKVDKTVAPSTCSKPTCPPPEQSRGPSVFIFPPKPKDTLMISRTPEVTCVVVDVSEDDPEVQFTWYINNEQVRTARPPLREQQFNSTIRVVSTLPIAHEDWLRGKEFKCKVHNKALPAPIEKTISKARGQPLEPKVYTMGPPREELSSRSVSLTCMINGFYPSDISVEWEKNGKAEDNYKTTPAVLDSDGSYFLYSKLSVPTSEWQRGDVFTCSVMHEALHNHYTQKSISRSPGK light: QIVLSQSPAILSASPGEKVTMTCRASSSVSYIHWFQQKPGSSPKPWIYATSNLASGVPVRFSGSGSGTSYSLTISRVEAEDAATYYCQQWTSNPPTFGGGTKLEIKRDPVAPSVLLFPPSKEELTTGTATIVCVANKFYPSDITVTWKVDGTTQQSGIENSKTPQSPEDNTYSLSSTLSLTSAQYNSHSVYTCEVVQGSASPIVQSFNRGDC | 147 % of wild-type reference | 0.048 absorbance (450 nm) | 0.051 absorbance (450 nm) | – | – | – | – | – | –
